Here are results for 13 molecules from paper PMC10577085 (ACS infectious diseases, 2023).

Series [1] deals with SP-Amidase (uncultured virus). Description: SEC. On the technique in general: In gel filtration, larger molecules generally elute earlier.
The target of series [2] is SP-GH25 (uncultured virus). The experiment in a line: SEC.
Series [3] concerns the target Cpl-1 Δtail (bacteriophage Cp-1) (UniProt P15057). The experiment in a line: AUC.
For a further series, the target named is Cpl-1 (Streptococcus phage Cp1, UniProt P15057). The experiment in a line: analytical size exclusion chromatography. It counts as binding.
Series [4] addresses SP-CHAP (uncultured virus). Description: SEC.
The series “SEC” concerns the molecule itself. Description: SEC.

Substitutions are numbered along the chain they refer to. Names may count otherwise.

The stoichiometry N is a count of units in the complex or per binding partner. In series [1], SP-Amidase (enzyme) returned a stoichiometry N of 2.
In series [2], SP-GH25 (enzyme) returned a stoichiometry N of 2.
In turn, “Cpl-1 Δtail (from UniProt P15057 1-323) (domain or fragment)” came in with a stoichiometry N in series [3] of 2.
In general, Kd refers to the free concentration of one partner at which half of the binding sites on the other are occupied at equilibrium, for simple one-to-one binding. A low value points to higher affinity. In turn, `C[N+](C)(C)CCO` [choline] had a dissociation constant Kd at Cpl-1 of roughly 5 mM.
In turn, SP-CHAP (enzyme) returned a stoichiometry N in series [4] of 2.

B1: Cpl-1 DNP→AAA (enzyme, bacteriophage Cp-1, UniProt P15057 1-339, looked up)
chain: MVKKNDLFVDVSSHNGYDITGILEQMGTTNTIIKISESTTYLNPCLSAQVEQSNPIGFYHFARFGGDVAEAEREAQFFLDNVPMQVKYLVLDYEDDPSGDAQANTNACLRFMQMIADAGYKPIYYSYKPFTHDNVDYQQILAQFPNSLWIAGYGLNDGTANFEYFPSMDGIRWWQYSSNPFDKNIVLLDDEEDDKPKTAGTWKQDSKGWWFRRNNGSFPYNKWEKIGGVWYYFDSKGYCLTSEWLKDNEKWYYLKDNGAMATGWVLVGSEWYYMDDSGAMVTGWVKYKNNWYYMTNERGNMVSNEFIKSGKGWYFMNTNGELAAAASFTKEPDGLITVA
In the case of B1, the “stoichiometry N” value in “SEC” is 2.

B2: Cpl-1 W210A:F218A (enzyme, bacteriophage Cp-1, UniProt P15057 1-339, looked up)
chain: B1 chain with W210A, F218A, A324D, A325N, A326P
As to B2, the “stoichiometry N” value in “SEC” is 2.

B3: Cpl-1 Y238A (enzyme, bacteriophage Cp-1, UniProt P15057 1-339, looked up)
chain: B1 chain with Y238A, A324D, A325N, A326P
As to B3, the “stoichiometry N” value in the series “SEC” turned out to be 2.

B4: Cpl-1 KEP→AAA (enzyme, bacteriophage Cp-1, UniProt P15057 1-339, looked up)
chain: B1 chain with A324D, A325N, A326P, K330A, E331A, P332A
Consider B4, for which the “stoichiometry N” value in the series “SEC” is 2.

B5: Cpl-1 W210A (enzyme, bacteriophage Cp-1, UniProt P15057 1-339, looked up)
chain: B1 chain with W210A, A324D, A325N, A326P
In the case of B5, the “stoichiometry N” value in “SEC” turned out to be 2.

B6: Cpl-1 W210A:F218A:Y238A triple mutant (enzyme, bacteriophage Cp-1, UniProt P15057 1-339, looked up)
chain: B1 chain with W210A, F218A, Y238A, A324D, A325N, A326P
In the case of B6, the “stoichiometry N” value in “SEC” is 2.

B7: Cpl-1 F218A (enzyme, bacteriophage Cp-1, UniProt P15057 1-339, looked up)
chain: B1 chain with F218A, A324D, A325N, A326P
Consider B7, for which, in “SEC”, the “stoichiometry N” value amounted to 2.

B8: Cpl-1 F218A:Y238A (enzyme, bacteriophage Cp-1, UniProt P15057 1-339, looked up)
chain: B1 chain with F218A, Y238A, A324D, A325N, A326P
Consider B8, for which the “stoichiometry N” value in “SEC” stood at 2.
